Laboratory results from the supplement of paper PMC10724198.
± gives the standard deviation of the averaged measurements.

Each sequence was assayed on Saccharomyces cerevisiae (assay: protein stability index of tFT-peptide fusion (C-terminal peptide) (PSI (0-1 scale)); higher = more stable (slower turnover)). Conditions: genetic background: wild type; temperature: 30 C.
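Note: PSI is a weighted mean of sequencing reads over stability bins, variants kept only with over 10 reads, mCherry proximal and sfGFP distal, peptide attached via GGGS linker.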

Sequence	protein stability index
PATPPPLPPLSP	0.701 ± 0.054
PATQTRKETRTP	0.69 ± 0.059
PATTVAKGSHQF	0.717 ± 0.026
PAVISLLPVWFT	0.691 ± 0.015
PAWGEQYYGNVR	0.69 ± 0.057
PAYTRDIRKPRH	0.654 ± 0.051
PCAPPTPAPLHP	0.6687 ± 0.0048
PCDCAHPVLRPM	0.634 ± 0.069
PCHPRPPPASPP	0.692 ± 0.096
PCHSPATRTLPC	0.6824 ± 0.0025
PCLSRFPGSPFL	0.6896 ± 0.0042
PCPLPSPHPPPR	0.717 ± 0.046
PCPPHILAPPPS	0.713 ± 0.0091
PDGFTFVFSPES	0.648 ± 0.038
PDPARSPLTSSY	0.6569 ± 0.0024
PDPGPPYPTPTA	0.708 ± 0.066
PDPPPLLPRLSL	0.701 ± 0.016
PDPSTRASDRKR	0.648 ± 0.017
PDPSVERFRGLC	0.758 ± 0.095
PDRGLRLKRILP	0.5675 ± 0.0017
PDRLPPPLLPPL	0.718 ± 0.028
PDRYPPPPGRRG	0.704 ± 0.014
PDSHPPAPPSPP	0.704 ± 0.031
PEAEPPPPPPPP	0.552 ± 0.028
PEGPTPPSLKLS	0.6162 ± 0.0052
PEMCEKRIKTPT	0.634 ± 0.031

Sequence	protein stability index
PEQKKRKVKIKK	0.686 ± 0.16
PERAPASRWTLS	0.7362 ± 0.0049
PESPLFPPLLPS	0.6599 ± 0.0018
PESRAESAKPRD	0.667 ± 0.019
PEVRTNKQHQER	0.746 ± 0.055
PFAGLFFFFVPF	0.58 ± 0.033
PFAPFIHNFGCT	0.713 ± 0.023
PFAYFSRFLYFP	0.633 ± 0.03
PFGSSPLCGSSF	0.683 ± 0.032
PFGTFFFPSFLL	0.683 ± 0.0032
PFIDCEHIRGFN	0.735 ± 0.046
PFIPPPRFPPPV	0.835 ± 0.074
PFLIPPRPFSFP	0.709 ± 0.1
PFLRLLQTVGST	0.593 ± 0.024
PFLTSPPPLPLH	0.632 ± 0.031
PFMFLSSCSGFF	0.735 ± 0.019
PFPAPPPPPPPP	0.678 ± 0.064
PFPLSPPPPPLD	0.761 ± 0.045
PFPPPPVPHARR	0.775 ± 0.22
PFPPPTPPPPLP	0.751 ± 0.077
PFPPRRPSATTL	0.727 ± 0.045
PFPSFFFCCISL	0.507 ± 0.0075
PFRPPPLLPFSP	0.799 ± 0.13
PFSGPVYSHNDV	0.738 ± 0.08
PFSLIFSFFSEV	0.7487 ± 0.0047
PFSSPPPLSLPP	0.7308 ± 0.0011

Sequence	protein stability index
PGALILSNRFFS	0.685 ± 0.041
PGAPPPASPPST	0.714 ± 0.047
PGCNLPLVPPRL	0.701 ± 0.018
PGFFRLSLFPFA	0.713 ± 0.0083
PGGLHHGCSTPA	0.724 ± 0.0087
PGGQGVRTDRPQ	0.678 ± 0.025
PGGTDGYSGLEK	0.689 ± 0.011
PGIGMVCAVAEG	0.687 ± 0.0082
PGLSLPLPPPRP	0.703 ± 0.035
PGLTAVVYRPAD	0.724 ± 0.04
PGPHGVVPTGNE	0.6666 ± 0.0056
PGPPPPPPALLP	0.658 ± 0.056
PGPPSTAPHLPE	0.659 ± 0.018
PGPPTPPPPLYP	0.706 ± 0.012
PGPTNSSLTASD	0.7667 ± 0.0037
PGSCAYHIFRFR	0.583 ± 0.0062
PGSLPPPPPPPP	0.716 ± 0.016
PGSLSLSPLLPS	0.758 ± 0.037
PGTGAASGTGGA	0.689 ± 0.012
PGTLLHPLSVGR	0.668 ± 0.019
PGWDSHRKILSQ	0.68 ± 0.0083
PHADFALFPFSP	0.785 ± 0.036
PHAERASPDGLS	0.664 ± 0.063
PHASLAPPLPPP	0.5801 ± 0.0042
PHCPPPPSLSPP	0.791 ± 0.094
PHFLNNRNTIRR	0.714 ± 0.04

Sequence	protein stability index
PHHAPRPPPFAG	0.646 ± 0.05
PHLPSSPSPYSP	0.689 ± 0.0043
PHPAPPPSPSPS	0.715 ± 0.033
PHPATLPPPAPT	0.699 ± 0.032
PHPGVPPTFLSL	0.657 ± 0.11
PHPLPSPSPPPH	0.69228 ± 0.00045
PHPPPVPAPPPP	0.663 ± 0.008
PHPPSCPLTPPP	0.666 ± 0.015
PHPRPPLAPPLT	0.688 ± 0.038
PHRPPPCLPFGS	0.728 ± 0.039
PHSGVVVRCPSG	0.704 ± 0.022
PHSPLPAHPPCR	0.745 ± 0.14
PHSPPSLSPTPP	0.685 ± 0.06
PHSPSSPTIPSS	0.7363 ± 0.0069
PHSSPSHRLSLP	0.722 ± 0.035
PHTGVKRDIENE	0.693 ± 0.092
PIDYRPEPYALP	0.775 ± 0.034
PIGFSHISFSPS	0.645 ± 0.1
PINALLHNKRES	0.721 ± 0.082
PIPPHGTPPAAY	0.694 ± 0.036
PIPPPAPPPAPP	0.6778 ± 0.0036
PIPPPPRACGPS	0.7 ± 0.02
PIPSPAPLPPRP	0.675 ± 0.0073
PIRPQSSVSLKQ	0.64958 ± 0.00064
PIRPSPPVLPPL	0.647 ± 0.11
PISLFLSSSAPL	0.729 ± 0.053

Sequence	protein stability index
PISTHYGSAVFM	0.692 ± 0.029
PITFPPSLPPPP	0.666 ± 0.045
PIVLALPTFPPL	0.716 ± 0.048
PIWRLVMRCCRS	0.575 ± 0.022
PKKGKKKLREKS	0.728 ± 0.051
PKKTTIQRDKTN	0.607 ± 0.027
PKNNHTKKKTGQ	0.677 ± 0.0093
PKPNRAHSTTHR	0.691 ± 0.008
PKRTHDPAPKTT	0.70897 ± 0.00058
PKRTTHIGRIHE	0.6875 ± 0.006
PKSGRAVMQGEG	0.631 ± 0.071
PKSRTLKDITIF	0.684 ± 0.024
PLAPPRSPHLPP	0.673 ± 0.041
PLAPSSHLHPSP	0.75 ± 0.0015
PLATLIPPLIPS	0.554 ± 0.084
PLCLPALPPPLP	0.676 ± 0.097
PLFLLPSSPPAS	0.757 ± 0.06
PLFLPALPPPLP	0.687 ± 0.11
PLFPACYFHPFD	0.746 ± 0.032
PLFYSLCFFCGL	0.667 ± 0.044
PLGGLTLNIIEC	0.701 ± 0.0089
PLGPPPPPPLPS	0.7222 ± 0.0058
PLHHPPSPRLPP	0.617 ± 0.018
PLHLYPHPPTHS	0.698 ± 0.078
PLHSPPSRPCQL	0.691 ± 0.065
PLHVSLVRFGCP	0.633 ± 0.032

Sequence	protein stability index
PLHYPTPCHPLP	0.726 ± 0.052
PLKTDSVPEFTA	0.5811 ± 0.0033
PLLASRFLQVGF	0.678 ± 0.0074
PLLLHHPPPRVP	0.666 ± 0.029
PLLPLPPNPSPP	0.681 ± 0.022
PLLPSPPLLLPS	0.819 ± 0.12
PLLSYSPPAPPP	0.664 ± 0.024
PLLTPPFFPPPP	0.7588 ± 0.0053
PLNQKPPDWPTQ	0.734 ± 0.015
PLNSNSYDASPL	0.658 ± 0.052
PLPALPPPPRGP	0.636 ± 0.026
PLPAPPLPPRSP	0.703 ± 0.012
PLPDPPPTPSGT	0.682 ± 0.058
PLPGPSPPPAPP	0.648 ± 0.044
PLPHPPPPPPLP	0.768 ± 0.026
PLPINAGVRITP	0.671 ± 0.1
PLPLHLATPHLF	0.694 ± 0.05
PLPLPLPSRPRP	0.653 ± 0.044
PLPMPHPRSRST	0.673 ± 0.014
PLPPCSARPPPR	0.7657 ± 0.0042
PLPPDPPCPPPP	0.651 ± 0.072
PLPPLPPPLPAP	0.705 ± 0.052
PLPPLPSTHPTL	0.698 ± 0.035
PLPPPLPNPPPS	0.667 ± 0.074
PLPPPLPPPGPH	0.731 ± 0.053
PLPPPPARLPSP	0.703 ± 0.017

Sequence	protein stability index
PLPPPPHPLLLL	0.681 ± 0.024
PLPPPPRLPPRH	0.677 ± 0.04
PLPPPPYPPTLL	0.592 ± 0.016
PLPPPSPSSLSP	0.713 ± 0.074
PLPPRSPPRRPS	0.634 ± 0.079
PLPPSAPPLPPS	0.778 ± 0.091
PLPSFPFPRPSS	0.634 ± 0.037
PLPSHSRSRHPR	0.744 ± 0.075
PLPSLLLLPPFP	0.701 ± 0.058
PLPSPPPPFLSL	0.71 ± 0.048
PLPSPPPSATSL	0.602 ± 0.045
PLPTPTPPPPAP	0.734 ± 0.028
PLPTSRKSFGLV	0.665 ± 0.06
PLPWIFHCRAPL	0.719 ± 0.048
PLQEHYRQIFPD	0.71 ± 0.0044
PLQFLPPLPCVS	0.539 ± 0.039
PLQFSLADEFST	0.705 ± 0.02
PLRFSSFSFPGW	0.739 ± 0.13
PLRRPPRLPAPP	0.7 ± 0.11
PLRTRESIGARG	0.707 ± 0.038
PLSASPLPPFSR	0.734 ± 0.11
PLSCDSPFVNPT	0.737 ± 0.042
PLSFPALFSPLS	0.684 ± 0.034
PLSHSPPAPSSP	0.658 ± 0.026
PLSLICLLKSYL	0.708 ± 0.025
PLSLPLSLLCPP	0.698 ± 0.051

Sequence	protein stability index
PLSLPPPSPRPP	0.657 ± 0.013
PLSLSVPPAFFI	0.538 ± 0.14
PLSPLALLPLRF	0.694 ± 0.065
PLSPLSLSPVAP	0.62 ± 0.026
PLSPPPPSHIPP	0.653 ± 0.023
PLTNPPCLTKYP	0.793 ± 0.033
PLTPPPAVHTYL	0.72 ± 0.037
PLTPVSPSPNPV	0.648 ± 0.042
PLTSNTSPPPMT	0.618 ± 0.072
PLVQSSCCRNYY	0.7 ± 0.04
PLVVPPSPRPPP	0.735 ± 0.063
PLWAVRPLLPPE	0.677 ± 0.016
PMADACPAPPPQ	0.643 ± 0.041
PMPGATDCQRGC	0.615 ± 0.053
PNFPEPSLTDAL	0.716 ± 0.04
PNGSRPAHGVKN	0.646 ± 0.032
PNLPRHPFPPSS	0.74 ± 0.011
PNLTYNTLRVVL	0.638 ± 0.04
PNNANHIKHRQY	0.6722 ± 0.0012
PNPEKPPGAPGQ	0.63 ± 0.087
